± gives the standard error. Fewer inactive variants are shown than the library holds.
B1: glmS ribozyme (parent)
chain: AUAAAAGCGCCAGAACUACAGAAAUGUAGUUGACGAGGAGGAGGUUUAUCGAAUUUUCGGCGGAUGCCUCCAAA

How the values were obtained:
Details in all cases: with glucosamine-6-phosphate
glucosamine-6-phosphate [1] = variants of: B1; assay: self-cleavage kobs at 40 uM GlcN6P; higher = faster cleavage; RNA array
Outline: (§1)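 Tiles of sequenced MiSeq chips were imaged over ~14 h at 37 °C. On them, barcoded ribozyme variants had been transcribed in situ by E. coli RNA polymerase and were tracked via a hybridised Cy3 probe while glucosamine-6-phosphate (40 μM to 10 mM) in HEPES/KCl/Mg(OAc)2 buffer flowed in. Per-tile medians, normalised to baseline and to non-cleaving reference variants, were fit to one- or two-exponential decays for kobs, and weighted Michaelis–Menten fits gave kcat and KM.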

glucosamine-6-phosphate [2] = variants of: B1; assay: self-cleavage kobs at 160 uM GlcN6P; higher = faster cleavage; RNA array
Outline: as §1

glucosamine-6-phosphate [3] = variants of: B1; assay: self-cleavage kobs at 640 uM GlcN6P; higher = faster cleavage; RNA array
Outline: as §1

glucosamine-6-phosphate [4] = variants of: B1; assay: self-cleavage kobs at 2500 uM GlcN6P; higher = faster cleavage; RNA array
Outline: as §1

glucosamine-6-phosphate [5] = variants of: B1; assay: self-cleavage kobs at 10000 uM GlcN6P; higher = faster cleavage; RNA array
Outline: as §1

Variant	self-cleavage kobs at 40 uM GlcN6P (glucosamine-6-phosphate [1]) [s⁻¹]	self-cleavage kobs at 160 uM GlcN6P (glucosamine-6-phosphate [2]) [s⁻¹]	self-cleavage kobs at 640 uM GlcN6P (glucosamine-6-phosphate [3]) [s⁻¹]	self-cleavage kobs at 2500 uM GlcN6P (glucosamine-6-phosphate [4]) [s⁻¹]	self-cleavage kobs at 10000 uM GlcN6P (glucosamine-6-phosphate [5]) [s⁻¹]
AUAAAAUCGCCAGAACUAAAGAAAUGUAGUUGACGAGGAGGAGGUUUAUCGAAUUUUCGGCGGAUGCCUCCAAA	< 1e-05	< 1e-05	< 1e-05	< 1e-05	–
AUAAAAUCGCCAGAACUACAGAAAUGUAGUUGACGAGGAGGAGGUUUAUGGAAUUUUCGGCGGAUGCCUCCAAA	0.000281 ± 8.4e-05	0.000551 ± 0.00024	–	0.0008 ± 0.00024	–
AUAAAAUCUCCAGAACUACAGAAAUGUAGUUGACGAGGAGGAGGUUUAUCGAAUUUUCGGCGGAUGCCUCCAAA	< 1e-05	< 1e-05	< 1e-05	< 1e-05	< 1e-05
AUAAAAUCGCCAUAACUACAGAAAUGUAGUUGACGAGGAGGAGGUUUAUCGAGUUUUCGGCGGAUGCCUCCAAA	< 1e-05	–	–	–	–
AUAAAAUCACCAGAACUACAGAAAUGUAGUUGACGAGGAGGAGGUUUAUCGAAUUUGCGGCGGAUGACUCCAAA	< 1e-05	–	–	–	–
AUAAAAUCGCCAGAACUACAGAAAUGUAGUUGACUAGGAGGAGGUUUAUCGAAUUUUCGGCGGAUGCCUCCAAA	< 1e-05	< 1e-05	–	< 1e-05	< 1e-05
AUAAAAUCGCCAGAACUACAGAAAUGUAGUUGACGACGAGGAGGUUUAUCGAAUUUUCGGAGGAUGCGUUCAAA	0.000181 ± 5.8e-05	–	–	–	9.36e-05 ± 2.7e-05
AUAAAAUCGCCAGAACUACAGAAAUGUAGUUGACGAGGAGUAGGUUUUUCGAAUUUUCGGCGGAUGCCUCCAAA	< 1e-05	–	–	–	–
AUAAAAUCGCCAGAACUACAGAAAUGUACUUGACGAGGAGGAUGUUUAUCAAAUUUUCGGCGGAUGCCUCCAAA	< 1e-05	–	–	–	< 1e-05
AUAAAAUCGCCAGAACUACAGAAAUGUAGAUGACGAGGAGGAGGUUUAUCGAAUUUUCGGCGGAUGCCUCCAAA	< 1e-05	< 1e-05	< 1e-05	< 1e-05	–
AUAAAAUCGCCAGAACUACAGAAAUGUAGGUGACGAGGAGGAGGUUUAUCGAAUUUUCGGCGGAUGCCUCCAAA	< 1e-05	< 1e-05	–	–	< 1e-05
AUAAAAUCGCCAGAACUACAGAAAUGUAGUUUACGAGGAGGAGGUUUAUCGAAUUUUCGGCGGAUGCCUCCAAA	< 1e-05	< 1e-05	< 1e-05	< 1e-05	< 1e-05
AUAAAAUCGACAGAUCUACAGAAAUGUAGUUGACGAGGAGGAGGUUUAUCGAAUUUUCGGCGGAUGCCUCCAAA	< 1e-05	–	< 1e-05	< 1e-05	–
